This is an account of results in the RNAGym collection of RNA variant scans (doi:10.1073/pnas.2313332121).

The chains are these.
B1: TPR 5TU (parent)
chain: GGAUCUUCUCGAUCUAACAAAAAAGACAAAUCUGCCACAAAGCUUGAGAGCAUCUUCGGAUGCAGAGGCGGCAGCCUUCGGUGGCGCGAUAGCGCCAACGUUCUCAACUAUGACACGCAAAACGCGUGCUCCGUUGAAUGGAGUUUAUCAUG

Fewer inactive variants are shown than the library holds.

Variants of B1 are the subject of this series. Description: polymerase ribozyme fitness, log enrichment relative to wild type (log ratio); higher = more active; in vitro selection for triplet polymerase activity. Summed up: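 Fitness measures genotype enrichment against wild-type enrichment on a logarithmic scale, with inverse-variance-weighted averaging of replicates. The logarithm is base 2, and genotypes were kept only with ≥10 input reads and ≥1 read per output in Illumina sequencing. The sequenced libraries came from one triplicate in vitro selection round, including frozen incubation at −7 °C, of PCR-built, transcribed mutant libraries of each subunit of a heterodimeric triplet polymerase ribozyme.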
A97G G141C: the “polymerase ribozyme fitness (log ratio)” value is -1.86. Next, C96U C103U: -1.25; C96A A142U: -1.24. For G94U G143U the value was -3.64.

C96A A115U A147C: the “polymerase ribozyme fitness (log ratio)” value was -3.48. For C96U A97G G124A C149A the value was -4.08; for C96A C105G C125A, -2.29. For C96U U139A the value was -3.94.

As to A98U G136C, the “polymerase ribozyme fitness (log ratio)” value was -3.87.

Take C93U C116U C123A: the “polymerase ribozyme fitness (log ratio)” value was -1.16.

For the variant C95U U101G C105U C125U A142U, the “polymerase ribozyme fitness (log ratio)” value is ≤ -4.2.

As to C93U A110G, the “polymerase ribozyme fitness (log ratio)” value is -3.25.

In the case of C93U A110U, the “polymerase ribozyme fitness (log ratio)” value is -4.1. Regarding C96A G112C, the “polymerase ribozyme fitness (log ratio)” value was -3.31.

Consider C93U C118U, for which the “polymerase ribozyme fitness (log ratio)” value is -1.84. For C93U C114A, the “polymerase ribozyme fitness (log ratio)” value is -3.41.

Consider C96A A120U G140U, for which the “polymerase ribozyme fitness (log ratio)” value is -3.09. In the case of C93U A107U, the “polymerase ribozyme fitness (log ratio)” value was -4.04. For the variant G94A C116G, the “polymerase ribozyme fitness (log ratio)” value was 0.466.

For the variant C96G C105U C116G A119U C132U, the “polymerase ribozyme fitness (log ratio)” value was -1.57. Next, C93U C95U U102A A106G: -2.87; C96G U109G G124C: -2.62. For A97G C123U the value was 0.215.

Regarding C96U U109C, the “polymerase ribozyme fitness (log ratio)” value was -3.67. G94C A97G A121U A122U: the “polymerase ribozyme fitness (log ratio)” value was -0.691. Take G94A C105U C116U C125G: the “polymerase ribozyme fitness (log ratio)” value is -0.0334. As for C95A A120G A138G, the “polymerase ribozyme fitness (log ratio)” value was -2.96.

Regarding G94A G141U, the “polymerase ribozyme fitness (log ratio)” value worked out at 0.898.

For the variant G94A G141A, the “polymerase ribozyme fitness (log ratio)” value was determined as 0.172. For the variant G94A G141C, the “polymerase ribozyme fitness (log ratio)” value is -2.23.

Consider G94C A113G, for which the “polymerase ribozyme fitness (log ratio)” value is -2.8. Next, A98U A138G: -3.32; C96U G117U A120U C149A: ≤ -4.2; C95A G141C: 0.744. As to C96A A137U, the “polymerase ribozyme fitness (log ratio)” value was -3.87. With C96G G141C, the “polymerase ribozyme fitness (log ratio)” value was -0.919. Next, C96A U151C: -3.24. For G94U A142U the value was -1.73; for C96A U144A, -0.177; for G94A U148C, -2.75. For G94A U148A the value was -3.08; for C95U G100U U104G C114U G141C A150C, ≤ -4.2; for A98U C129U, 0.463. In the case of C96U G133A, the “polymerase ribozyme fitness (log ratio)” value is -3.92. Next, C95U U102G: -1.19; C95U U102C: -1.06. Next, G94C U145G: -0.944; C96U U145A A150U: 0.912; C95U A142U U145G: -2.47. For the variant C96U G126U A137C A138G, the “polymerase ribozyme fitness (log ratio)” value is ≤ -4.2.

As for C93U C95U C149A, the “polymerase ribozyme fitness (log ratio)” value is ≤ -4.2. Regarding C96A G128U, the “polymerase ribozyme fitness (log ratio)” value is -2.45. Next, C96G C125G U130G C132A: ≤ -4.2; C96G A110G: -3.11; A98G A120G: -0.401. For C93U A150G the value was -1.93; for G94C U104G, -1.24. For C96A U135C the value was -1.91; for C96U C105A C116G, -1.79; for C96U A107G G117A, ≤ -4.2. As for C95U A142G, the “polymerase ribozyme fitness (log ratio)” value was -1.66. For C95U A142C the value was -1.54; for C96G A122G U139G, 0.0535. For G94A C116G C123G the value was 0.258; for G94A G143U, -3.57. For G94A G143A the value was -1.01; for C96U G100U, -3.13; for C95G C96U A120U A122C U139G, -1.86. As for C96G C99G C116A A147C, the “polymerase ribozyme fitness (log ratio)” value was ≤ -4.2. For the variant C96U U101G G124C, the “polymerase ribozyme fitness (log ratio)” value is -0.75.

In the case of C96G C108U, the “polymerase ribozyme fitness (log ratio)” value is -2.5.

In the case of C96U A115U, the “polymerase ribozyme fitness (log ratio)” value is -2.64. For the variant C96A A98U, the “polymerase ribozyme fitness (log ratio)” value is -0.335. For C96G A142C the value was -1.82. For G94C A97U A150G the value was -1.52; for C96G G112C, -3.95; for A98G A115G U135G, -3.81. Next, C96U U144G: -0.238; A97U C125A: -0.436. Turning to A97G G143A, the “polymerase ribozyme fitness (log ratio)” value is -1.44. With C96U C131U, the “polymerase ribozyme fitness (log ratio)” value is 0.576. Regarding C96U C131G, the “polymerase ribozyme fitness (log ratio)” value is -2.66. For C96U U101C A142C the value was -1.82. For C96A C103G the value was -2.53; for C95U C114U, -1.72. Next, A97G A150G: -2.82. In the case of A97G A150C, the “polymerase ribozyme fitness (log ratio)” value is -2.96. Next, A97U G141C U146G: -2.08; C96U C105G: -2.46. For C96U C105A the value was -0.493; for C96U C105U, 0.67; for A97G C131A, -2.32. Next, A97G C131G: -3.21; A97U C116U: -0.695.

Take C96G C131A: the “polymerase ribozyme fitness (log ratio)” value is -2.35. In the case of G94U U101G A120U A142U, the “polymerase ribozyme fitness (log ratio)” value is -2.08. For A98G G128A the value was -3.02. Regarding G94A U146G, the “polymerase ribozyme fitness (log ratio)” value was -1.25. For G94C C116U the value was -0.0318; for C96U A107U, -3.35. Next, C96U A107C: -3.14; C93U G141C: -1.55.

C93U G141U: the “polymerase ribozyme fitness (log ratio)” value was -0.142. Take C96G A119U: the “polymerase ribozyme fitness (log ratio)” value is -2.52.

For C93U G143C, the “polymerase ribozyme fitness (log ratio)” value is -3.12. Consider C95A C108G, for which the “polymerase ribozyme fitness (log ratio)” value was ≤ -4.2. For C93U C125A the value was -2.69; for C93U C125G, -1.79. For C96U A121G the value was 0.324.

Take C96A G136A: the “polymerase ribozyme fitness (log ratio)” value is -0.205. For C93U C105U the value was -2.55. Next, G94C C129G: -3.39; G94A U104C C149U: -1.16. Next, C96A G143C: -2.38; G94U U104C G117U U134A: -2.96. Regarding G94A C114U, the “polymerase ribozyme fitness (log ratio)” value is -1.93.

In the case of A97G U102A C129A, the “polymerase ribozyme fitness (log ratio)” value was -3.98. For C96G A121C C129U the value was -0.0949.

In the case of G94A C105G C116A G141C, the “polymerase ribozyme fitness (log ratio)” value is ≤ -4.2. Next, G94U A147U: 0.0631.

For C96A G152U, the “polymerase ribozyme fitness (log ratio)” value is -2.51.

Consider C96G U144C, for which the “polymerase ribozyme fitness (log ratio)” value was -0.123. For A97U U109G the value was -1.62. Next, C96U A97C: 0.0607; C95U U111G: ≤ -4.2; G94C A142C: -1.37. For C93U U134A the value was -4.01; for G94C A97U, -2.45. Consider G94C A122C A137U, for which the “polymerase ribozyme fitness (log ratio)” value was -4.05. Next, C96A C125U G143A: -3.57; G94A C116U A122U G136A: -0.164; A97C A98U U111G: -3.78. For the variant C95U C116A C129G U148G, the “polymerase ribozyme fitness (log ratio)” value was ≤ -4.2. Next, C93U U109C: ≤ -4.2. As to C96A U101C U109A C118A, the “polymerase ribozyme fitness (log ratio)” value is -1.54. Next, A98G U101C G141U: 0.851. Next, C95U: -0.031; C95A: 0.441. Next, C96G A97U: -1.83. C96G A97G: the “polymerase ribozyme fitness (log ratio)” value is -2.61. Consider C96G A122U A142U, for which the “polymerase ribozyme fitness (log ratio)” value was -1.45. Take C93U G133C: the “polymerase ribozyme fitness (log ratio)” value was -2.76. As for G94A G133C, the “polymerase ribozyme fitness (log ratio)” value was -2.71.

G94A G133U: the “polymerase ribozyme fitness (log ratio)” value is -3.19. Next, G94A U101G: -0.0834; C96U U148G: -3.13; C96U U148A: -3.33. Next, C95U A98G C105U: 0.768; C95A G140A: -2.71; A97U U139C G140C U145G: -3.85. For G94C U134G U135C the value was ≤ -4.2; for G94U C129G A147U, ≤ -4.2.

In the case of C95G A97C, the “polymerase ribozyme fitness (log ratio)” value is -0.47. For C96U A119U G152C the value was -3.13; for A97U G124U, -1.05. Next, G94C U101C: -0.185; A97G U130G: -2.77; C93U A113U A119C G140U: -3.82. For G94A A110G the value was -2.35; for C96G A98U U144G, -0.0548.

On to A97G G152A, for which the “polymerase ribozyme fitness (log ratio)” value was -3.19. Next, A98G A121G: -1.63; C93U C116U A122U: -1.45. Next, C93U C118A C125A U139C: -4.16; C93U U104G: -1.8; C93U C99U: -2.8.

C93U C99A: the “polymerase ribozyme fitness (log ratio)” value was -3.72.
